Experiments:
Experiment in all cases: holdup assay
Parameters in all cases: key: below the threshold = too weak to quantify, mostly under pKd 3.1 to 4
SCRIB_2, Q14160 = biological target: SCRIB_2, Q14160
MAGI1_1, Q96QZ7 = biological target: MAGI1_1, Q96QZ7
IL16_3, Q14005 = biological target: IL16_3, Q14005
GRID2IP_1, A4D2P6 = biological target: GRID2IP_1, A4D2P6
MPDZ_10, O75970 = biological target: T1, MPDZ_10, O75970
T1 sequence (O75970 1624-1722, limits assumed, looked up): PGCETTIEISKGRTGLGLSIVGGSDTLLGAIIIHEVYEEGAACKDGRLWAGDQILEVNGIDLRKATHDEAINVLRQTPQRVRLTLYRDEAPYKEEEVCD

GIPC2, Q8TF65 = biological target: GIPC2, Q8TF65
Sequence of GIPC2, Q8TF65 (Q8TF65 112-203): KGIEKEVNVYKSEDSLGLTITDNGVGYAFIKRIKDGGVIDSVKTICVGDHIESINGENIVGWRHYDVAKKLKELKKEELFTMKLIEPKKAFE

PARD3B_1, Q8TEW8 = biological target: T2, PARD3B_1, Q8TEW8
T2 sequence (Q8TEW8 196-299, limits assumed, looked up): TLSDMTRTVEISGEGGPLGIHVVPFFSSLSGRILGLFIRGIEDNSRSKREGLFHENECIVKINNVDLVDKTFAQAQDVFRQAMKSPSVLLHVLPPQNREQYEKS

DFNB31_1, Q9P202 = biological target: T3, DFNB31_1, Q9P202
T3 sequence (Q9P202 135-233, limits assumed, looked up): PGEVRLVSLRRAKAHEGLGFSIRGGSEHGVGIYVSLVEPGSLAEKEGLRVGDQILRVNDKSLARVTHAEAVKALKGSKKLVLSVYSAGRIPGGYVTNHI

DLG3_1, Q92796 = biological target: T4, DLG3_1, Q92796
T4 sequence (Q92796 125-227, limits assumed, looked up): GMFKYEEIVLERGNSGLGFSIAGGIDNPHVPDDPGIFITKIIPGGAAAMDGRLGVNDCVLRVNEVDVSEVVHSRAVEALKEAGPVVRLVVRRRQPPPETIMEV

MAGI2_3, Q86UL8 = biological target: MAGI2_3, Q86UL8
Sequence of MAGI2_3, Q86UL8 (Q86UL8 600-682): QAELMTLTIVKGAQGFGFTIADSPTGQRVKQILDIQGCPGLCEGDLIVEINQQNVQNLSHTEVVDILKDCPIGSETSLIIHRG

DFNB31_2, Q9P202 = biological target: T5, DFNB31_2, Q9P202
T5 sequence (Q9P202 274-371, limits assumed, looked up): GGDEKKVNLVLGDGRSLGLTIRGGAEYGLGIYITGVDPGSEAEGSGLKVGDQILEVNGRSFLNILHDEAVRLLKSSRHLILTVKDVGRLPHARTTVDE

TJP2_1, Q9UDY2 = biological target: TJP2_1, Q9UDY2
Sequence of TJP2_1, Q9UDY2 (Q9UDY2 24-128): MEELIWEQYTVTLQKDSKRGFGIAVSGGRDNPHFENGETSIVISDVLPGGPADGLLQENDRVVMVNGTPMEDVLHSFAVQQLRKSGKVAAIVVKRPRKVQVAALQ

FRMPD1, Q5SYB0 = biological target: T6, FRMPD1, Q5SYB0
T6 sequence (Q5SYB0 52-145, limits assumed, looked up): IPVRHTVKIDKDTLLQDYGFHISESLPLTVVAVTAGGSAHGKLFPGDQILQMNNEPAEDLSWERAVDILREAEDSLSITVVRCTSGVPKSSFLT

LIN7A, O14910 = biological target: T7, LIN7A, O14910
T7 sequence (O14910 103-200, limits assumed, looked up): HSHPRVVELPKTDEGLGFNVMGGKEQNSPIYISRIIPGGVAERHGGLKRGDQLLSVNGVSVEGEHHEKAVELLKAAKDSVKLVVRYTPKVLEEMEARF

GRASP, Q7Z6J2 = biological target: GRASP, Q7Z6J2
Sequence of GRASP, Q7Z6J2 (Q7Z6J2 96-193): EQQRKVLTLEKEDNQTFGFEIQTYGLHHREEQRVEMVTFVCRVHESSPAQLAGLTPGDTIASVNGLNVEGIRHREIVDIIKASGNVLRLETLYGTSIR

NHERF3_1, Q5T2W1 = biological target: T8, NHERF3_1, Q5T2W1
T8 sequence (Q5T2W1 4-100, limits assumed, looked up): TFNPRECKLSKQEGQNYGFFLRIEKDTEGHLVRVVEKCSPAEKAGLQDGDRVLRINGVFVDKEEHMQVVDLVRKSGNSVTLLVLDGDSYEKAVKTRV

MAGI2_2, Q86UL8 = biological target: MAGI2_2, Q86UL8
Sequence of MAGI2_2, Q86UL8 (Q86UL8 410-522): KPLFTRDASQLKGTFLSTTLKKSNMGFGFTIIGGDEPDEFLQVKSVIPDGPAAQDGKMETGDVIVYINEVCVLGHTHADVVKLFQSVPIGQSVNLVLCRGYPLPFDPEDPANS

PDLIM1, O00151 = biological target: PDLIM1, O00151
Sequence of PDLIM1, O00151 (O00151 1-87): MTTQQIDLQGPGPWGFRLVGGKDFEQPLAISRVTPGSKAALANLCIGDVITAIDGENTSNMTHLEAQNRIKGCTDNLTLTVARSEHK

Inadl_10, Q8NI35 = biological target: Inadl_10, Q8NI35
Sequence of Inadl_10, Q8NI35 (Q8NI35 1673-1763): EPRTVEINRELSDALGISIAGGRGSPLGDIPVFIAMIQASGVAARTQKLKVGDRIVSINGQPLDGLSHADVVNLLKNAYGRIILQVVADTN

GRIP2_3, Q9C0E4 = biological target: GRIP2_3, Q9C0E4
Sequence of GRIP2_3, Q9C0E4 (Q9C0E4 238-339): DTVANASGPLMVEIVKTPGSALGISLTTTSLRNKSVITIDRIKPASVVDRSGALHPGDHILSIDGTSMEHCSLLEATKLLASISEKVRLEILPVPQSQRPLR

DLG2_3, Q15700 = biological target: DLG2_3, Q15700
Inadl_5, Q8NI35 = biological target: Inadl_5, Q8NI35
Sequence of Inadl_5, Q8NI35 (Q8NI35 673-780): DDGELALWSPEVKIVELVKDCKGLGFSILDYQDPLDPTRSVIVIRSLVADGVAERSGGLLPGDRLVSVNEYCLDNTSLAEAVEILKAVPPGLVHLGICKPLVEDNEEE

MPDZ_5, O75970 = biological target: T9, MPDZ_5, O75970
T9 sequence (O75970 695-796, limits assumed, looked up): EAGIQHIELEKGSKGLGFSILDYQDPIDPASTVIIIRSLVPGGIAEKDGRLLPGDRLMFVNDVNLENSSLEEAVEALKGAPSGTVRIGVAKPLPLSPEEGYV

Inadl_1, Q8NI35 = biological target: Inadl_1, Q8NI35
Sequence of Inadl_1, Q8NI35 (Q8NI35 113-229): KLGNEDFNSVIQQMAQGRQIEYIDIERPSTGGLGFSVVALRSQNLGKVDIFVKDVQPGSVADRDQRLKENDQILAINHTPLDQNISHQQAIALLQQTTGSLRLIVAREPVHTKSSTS

FRMPD2_3, Q68DX3 = biological target: FRMPD2_3, Q68DX3
Sequence of FRMPD2_3, Q68DX3 (Q68DX3 1073-1166): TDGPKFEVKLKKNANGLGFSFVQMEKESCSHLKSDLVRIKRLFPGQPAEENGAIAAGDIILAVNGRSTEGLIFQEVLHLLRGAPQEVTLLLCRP

SCRIB_1, Q14160 = biological target: SCRIB_1, Q14160
Sequence of SCRIB_1, Q14160 (Q14160 718-814): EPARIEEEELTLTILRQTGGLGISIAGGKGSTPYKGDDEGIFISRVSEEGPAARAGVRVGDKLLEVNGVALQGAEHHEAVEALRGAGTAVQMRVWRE

CASK, O14936 = biological target: CASK, O14936
Sequence of CASK, O14936 (O14936 487-570): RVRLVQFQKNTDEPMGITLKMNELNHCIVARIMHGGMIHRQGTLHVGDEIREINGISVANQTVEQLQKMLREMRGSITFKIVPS

RADIL, Q96JH8 = biological target: T10, RADIL, Q96JH8
T10 sequence (Q96JH8 971-1071, limits assumed, looked up): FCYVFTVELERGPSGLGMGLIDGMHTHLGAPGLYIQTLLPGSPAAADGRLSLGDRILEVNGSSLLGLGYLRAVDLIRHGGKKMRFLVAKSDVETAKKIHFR

[1] = plain residues with an end cap or a label only (N-terminal biotin on a linker: ttds)
[2] = plain residues with an end cap or a label only (N-terminal biotin on a linker: none)

Sequence of SCRIB_2, Q14160 (Q14160 857-960): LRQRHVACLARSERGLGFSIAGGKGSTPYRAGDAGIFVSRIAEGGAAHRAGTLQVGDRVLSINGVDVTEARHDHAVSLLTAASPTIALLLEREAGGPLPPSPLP
Sequence of IL16_3, Q14005 (Q14005 1107-1207): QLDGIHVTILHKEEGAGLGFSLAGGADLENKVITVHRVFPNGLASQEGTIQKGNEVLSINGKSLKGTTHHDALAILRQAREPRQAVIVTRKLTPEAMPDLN
Sequence of GRID2IP_1, A4D2P6 (A4D2P6 1-87): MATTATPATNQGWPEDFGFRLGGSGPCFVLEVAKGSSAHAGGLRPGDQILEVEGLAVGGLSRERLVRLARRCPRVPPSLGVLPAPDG
Sequence of MAGI1_1, Q96QZ7 (Q96QZ7 1-106): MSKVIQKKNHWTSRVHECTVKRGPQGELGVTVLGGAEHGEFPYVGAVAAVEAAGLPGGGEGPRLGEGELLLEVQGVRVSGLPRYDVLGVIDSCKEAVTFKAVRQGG

SGSRPSATVV [HPV73-E6, Q82005]
pKd (SCRIB_2, Q14160; [1]): 3.56
pKd (MAGI1_1, Q96QZ7; [1]): below the threshold
pKd (IL16_3, Q14005; [1]): below the threshold
pKd (GRID2IP_1, A4D2P6; [1]): below the threshold
pKd (MPDZ_10, O75970; [1]): 3.74
pKd (GIPC2, Q8TF65; [1]): 3.62
pKd (PARD3B_1, Q8TEW8; [1]): below the threshold
pKd (DFNB31_1, Q9P202; [1]): below the threshold
pKd (DLG3_1, Q92796; [1]): below the threshold
pKd (MAGI2_3, Q86UL8; [1]): 3.62
pKd (DFNB31_2, Q9P202; [1]): below the threshold
pKd (TJP2_1, Q9UDY2; [1]): 3.77
pKd (FRMPD1, Q5SYB0; [1]): below the threshold
pKd (LIN7A, O14910; [1]): below the threshold
pKd (GRASP, Q7Z6J2; [1]): 3.8
pKd (NHERF3_1, Q5T2W1; [1]): below the threshold
pKd (MAGI2_2, Q86UL8; [1]): 4.19
pKd (PDLIM1, O00151; [1]): 3.48
pKd (Inadl_10, Q8NI35; [1]): below the threshold
pKd (GRIP2_3, Q9C0E4; [1]): below the threshold
pKd (DLG2_3, Q15700; [1]): 3.61
pKd (Inadl_5, Q8NI35; [1]): below the threshold
pKd (MPDZ_5, O75970; [1]): 3.53
pKd (Inadl_1, Q8NI35; [1]): below the threshold
pKd (FRMPD2_3, Q68DX3; [1]): below the threshold
pKd (SCRIB_1, Q14160; [1]): below the threshold
pKd (CASK, O14936; [1]): below the threshold
pKd (RADIL, Q96JH8; [1]): 4.27

NLNSSRVPDLLV [SARS-CoV2-E, P0DTC4]
pKd (SCRIB_2, Q14160; [2]): below the threshold
pKd (MAGI1_1, Q96QZ7; [2]): below the threshold
pKd (IL16_3, Q14005; [2]): below the threshold
pKd (GRID2IP_1, A4D2P6; [2]): below the threshold
pKd (MPDZ_10, O75970; [2]): below the threshold
pKd (GIPC2, Q8TF65; [2]): below the threshold
pKd (PARD3B_1, Q8TEW8; [2]): below the threshold
pKd (DFNB31_1, Q9P202; [2]): below the threshold
pKd (DLG3_1, Q92796; [2]): below the threshold
pKd (MAGI2_3, Q86UL8; [2]): below the threshold
pKd (DFNB31_2, Q9P202; [2]): below the threshold
pKd (TJP2_1, Q9UDY2; [2]): below the threshold
pKd (FRMPD1, Q5SYB0; [2]): below the threshold
pKd (LIN7A, O14910; [2]): below the threshold
pKd (GRASP, Q7Z6J2; [2]): below the threshold
pKd (NHERF3_1, Q5T2W1; [2]): below the threshold
pKd (MAGI2_2, Q86UL8; [2]): below the threshold
pKd (PDLIM1, O00151; [2]): below the threshold
pKd (Inadl_10, Q8NI35; [2]): below the threshold
pKd (GRIP2_3, Q9C0E4; [2]): below the threshold
pKd (DLG2_3, Q15700; [2]): below the threshold
pKd (Inadl_5, Q8NI35; [2]): below the threshold
pKd (MPDZ_5, O75970; [2]): below the threshold
pKd (Inadl_1, Q8NI35; [2]): below the threshold
pKd (FRMPD2_3, Q68DX3; [2]): below the threshold
pKd (SCRIB_1, Q14160; [2]): below the threshold
pKd (CASK, O14936; [2]): below the threshold
pKd (RADIL, Q96JH8; [2]): 3.76

PVRVCEETSL [OTULIN, Q96BN8]
pKd (SCRIB_2, Q14160; [1]): 4.7
pKd (MAGI1_1, Q96QZ7; [1]): below the threshold
pKd (IL16_3, Q14005; [1]): below the threshold
pKd (GRID2IP_1, A4D2P6; [1]): below the threshold
pKd (MPDZ_10, O75970; [1]): below the threshold
pKd (GIPC2, Q8TF65; [1]): 4.02
pKd (PARD3B_1, Q8TEW8; [1]): 4.09
pKd (DFNB31_1, Q9P202; [1]): 4.42
pKd (DLG3_1, Q92796; [1]): 3.75
pKd (MAGI2_3, Q86UL8; [1]): below the threshold
pKd (DFNB31_2, Q9P202; [1]): 3.58
pKd (TJP2_1, Q9UDY2; [1]): below the threshold
pKd (FRMPD1, Q5SYB0; [1]): below the threshold
pKd (LIN7A, O14910; [1]): 3.47
pKd (GRASP, Q7Z6J2; [1]): 4.71
pKd (NHERF3_1, Q5T2W1; [1]): 5.92
pKd (MAGI2_2, Q86UL8; [1]): 4.09
pKd (PDLIM1, O00151; [1]): below the threshold
pKd (Inadl_10, Q8NI35; [1]): 3.55
pKd (GRIP2_3, Q9C0E4; [1]): 3.57
pKd (DLG2_3, Q15700; [1]): 3.95
pKd (Inadl_5, Q8NI35; [1]): 3.54
pKd (MPDZ_5, O75970; [1]): below the threshold
pKd (Inadl_1, Q8NI35; [1]): 3.7
pKd (FRMPD2_3, Q68DX3; [1]): below the threshold
pKd (SCRIB_1, Q14160; [1]): 5.44
pKd (CASK, O14936; [1]): below the threshold
pKd (RADIL, Q96JH8; [1]): below the threshold

VDFPPKESSL [ACVR2A, P27037]
pKd (SCRIB_2, Q14160; [1]): 3.48
pKd (MAGI1_1, Q96QZ7; [1]): below the threshold
pKd (IL16_3, Q14005; [1]): below the threshold
pKd (GRID2IP_1, A4D2P6; [1]): below the threshold
pKd (MPDZ_10, O75970; [1]): below the threshold
pKd (GIPC2, Q8TF65; [1]): below the threshold
pKd (PARD3B_1, Q8TEW8; [1]): below the threshold
pKd (DFNB31_1, Q9P202; [1]): below the threshold
pKd (DLG3_1, Q92796; [1]): below the threshold
pKd (MAGI2_3, Q86UL8; [1]): below the threshold
pKd (DFNB31_2, Q9P202; [1]): 3.46
pKd (TJP2_1, Q9UDY2; [1]): below the threshold
pKd (FRMPD1, Q5SYB0; [1]): below the threshold
pKd (LIN7A, O14910; [1]): 3.24
pKd (GRASP, Q7Z6J2; [1]): 3.47
pKd (NHERF3_1, Q5T2W1; [1]): 4.22
pKd (MAGI2_2, Q86UL8; [1]): 3.78
pKd (PDLIM1, O00151; [1]): 3.24
pKd (Inadl_10, Q8NI35; [1]): below the threshold
pKd (GRIP2_3, Q9C0E4; [1]): below the threshold
pKd (DLG2_3, Q15700; [1]): 3.75
pKd (Inadl_5, Q8NI35; [1]): below the threshold
pKd (MPDZ_5, O75970; [1]): below the threshold
pKd (Inadl_1, Q8NI35; [1]): below the threshold
pKd (FRMPD2_3, Q68DX3; [1]): below the threshold
pKd (SCRIB_1, Q14160; [1]): 3.83
pKd (CASK, O14936; [1]): below the threshold
pKd (RADIL, Q96JH8; [1]): below the threshold
